Laboratory results: patent publication US20260193348A1 (ANTENGENE BIOLOGICS, published 2026)

What was measured:
[1] = biological target: T1, GPRC5D (G-protein coupled receptor family C group 5 member D), human, on multiple myeloma cell lines (human, UniProt Q9NZD1 1-345); assay: cell-based or functional assay
[2] = biological target: T1, GPRC5D (G-protein coupled receptor …); assay: cell-based or functional assay; remark: listed apart in the source
[3] = biological target: T2, CD3 (Cluster of Differentiation 3 protein), human, on T cells / Jurkat cells (human, UniProt P07766 23-207; P04234 22-171; P09693 23-182); assay: FACS, Jurkat cells, antibody at 50 µg/ml
T2 construct: whole, on cells; part of the TCR-CD3 complex; also called human CD3
T2 sequence (P07766 23-207, chain 1 of 3): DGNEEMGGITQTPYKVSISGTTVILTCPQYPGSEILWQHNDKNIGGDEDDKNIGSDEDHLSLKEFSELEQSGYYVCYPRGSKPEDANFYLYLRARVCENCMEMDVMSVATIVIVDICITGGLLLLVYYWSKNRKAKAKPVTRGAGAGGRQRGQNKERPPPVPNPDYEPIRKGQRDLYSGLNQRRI
T2 sequence (P04234 22-171, chain 2 of 3): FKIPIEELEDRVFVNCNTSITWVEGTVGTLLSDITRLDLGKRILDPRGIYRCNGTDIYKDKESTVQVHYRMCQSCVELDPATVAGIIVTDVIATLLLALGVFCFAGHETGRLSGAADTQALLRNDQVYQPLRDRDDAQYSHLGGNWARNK
T2 sequence (P09693 23-182, chain 3 of 3): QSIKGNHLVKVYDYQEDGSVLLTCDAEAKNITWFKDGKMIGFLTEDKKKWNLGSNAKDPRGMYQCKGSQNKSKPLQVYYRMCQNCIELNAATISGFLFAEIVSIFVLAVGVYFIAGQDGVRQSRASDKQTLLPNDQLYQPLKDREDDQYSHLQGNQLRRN
Procedure: (§1) The binding affinities of the generated humanized Fab-scFv-Fab bispecific antibodies were determined by FACS analysis. […] (a) Jurkat cells were washed by Staining Buffer (PBS+1% BSA) in round bottom 96-well plate. [0833] (b) Antibody dilutions and cells were added to each well, incubated at 4 degrees for 1 hour. [0834] (c) Cells were spined down at 300 g for 3 minutes, and the supernatants were discarded. [0835] (d) Cells were washed with Staining Buffer. […] (e) Step (d) was repeated and the cells were incubated for 0.5 hours at 4 degrees with secondary antibody in Staining Buffer. [0837] (f) After incubation, step (d)-(e) were repeated. […] (g) Staining Buffer was added and fluorescence signals were recorded by flow cytometry.

GPRC5D on MM.1S cells [4] = biological target: T3, GPRC5D on MM.1S cells (human, UniProt Q9NZD1 1-345); assay: FACS on MM.1S cells
T3 construct: whole, on cells; MM.1S is called a GPRC5D positive expressed cell line and human multiple myeloma cells; also called G-protein coupled receptor family C group 5 member D
T3 sequence (Q9NZD1 whole entry): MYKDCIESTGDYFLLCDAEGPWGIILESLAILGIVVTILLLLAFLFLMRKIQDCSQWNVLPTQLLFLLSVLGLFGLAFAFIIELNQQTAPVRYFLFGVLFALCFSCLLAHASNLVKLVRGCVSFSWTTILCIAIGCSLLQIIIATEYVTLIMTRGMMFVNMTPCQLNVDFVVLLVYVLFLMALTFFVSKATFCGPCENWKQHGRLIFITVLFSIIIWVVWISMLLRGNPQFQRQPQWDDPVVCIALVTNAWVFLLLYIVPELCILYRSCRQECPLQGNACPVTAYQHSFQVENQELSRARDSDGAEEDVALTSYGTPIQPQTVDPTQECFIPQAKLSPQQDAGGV
Procedure: To evaluate the binding affinity of the generated chimeric bispecific antibody to T cells, the isolated CD3⁺ T cells were stained by antibodies and the binding affinity was determined by FACS analysis. The protocol of FACS analysis is described as follows: [0785] (a) CD3⁺ T cells were isolated from normal donors. [0786] (b) The isolated CD3⁺ T cells were washed by Staining Buffer (PBS+1% BSA) in round bottom 96-well plate. […] (c) Antibody dilutions were added to each well and mixed with the CD3+ T cells, incubated at 4 degrees for 1 hour. […] (d) Cells were spined at 300 g for 3 minutes, then the supernatants were discarded. [0789] (e) Cells were washed with Staining Buffer. [0790] (f) Step (d) was repeated, and the cells were incubated with secondary antibody in Staining Buffer for 0.5 hours at 4 degrees. [0791] (g) After incubation, step (d)-(e) were repeated. [0792] (h) Cells were resuspended in Staining Buffer and fluorescence signals were recorded by flow cytometry.
The binding affinities of the generated humanized Fab-scFv-Fab bispecific antibodies to MM.1S were evaluated by FACS analysis. The protocol for FACS analysis is identical to that described in Example 1.2, except that MM.1S were used in this example.

CD3 on Jurkat cells = biological target: T4, CD3 on Jurkat cells (UniProt P07766 23-207; P04234 22-171; P09693 23-182); assay: FACS on Jurkat cells
T4 construct: whole, on cells; On the cell, CD3 stands in the TCR-CD3 complex; also called cluster of differentiation 3
T4 sequence (P07766 23-207, chain 1 of 3): as the sequence (P07766 23-207, chain 1 of 3) above
T4 sequence (P04234 22-171, chain 2 of 3): as the sequence (P04234 22-171, chain 2 of 3) above
T4 sequence (P09693 23-182, chain 3 of 3): as the sequence (P09693 23-182, chain 3 of 3) above
Procedure: as §1
The binding affinities of the generated humanized Fab-scFv-Fab bispecific antibodies were determined by FACS analysis. The protocol for FACS analysis is identical to that described in Example 3.2, except that different test antibodies were used.

GPRC5D on MM.1S cells [5] = biological target: T3, GPRC5D on MM.1S cells; assay: cell-based or functional assay
GPRC5D on MM.1S cells [6] = biological target: T3, GPRC5D on MM.1S cells; assay: cell-based or functional assay; remark: listed apart in the source

T1 sequence (Q9NZD1 whole entry): as the sequence (Q9NZD1 whole entry) above

Binder	IC50 (nM), T-Cell Dependent Cytotoxicity, MM.1S [1] [nM]	IC50 (nM), T-Cell Dependent Cytotoxicity, MOLP-8 [1] [nM]	IC50 (nM), T-Cell Dependent Cytotoxicity, RPMI8226 [1] [nM]	Top (%), T-Cell Dependent Cytotoxicity, MM.1S [1] [%]	Top (%), T-Cell Dependent Cytotoxicity, MOLP-8 [1] [%]	Top (%), T-Cell Dependent Cytotoxicity, RPMI8226 [1] [%]	EC50 (nM), luciferase assay, MM.1S [2] [nM]	Top (RLU), luciferase assay, MM.1S [2] [RLU]	Top (RLU), luciferase assay, MOLP-8 [2] [RLU]	MFI (50 µg/ml) [3] [MFI]	Ratio of EC50 (relative to ATG-Bis-40E9) (GPRC5D on MM.1S cells [4]) [ratio]	Ratio of Top MFI (relative to ATG-Bis-40E9) (GPRC5D on MM.1S cells [4]) [ratio]	Ratio of EC50 (relative to ATG-Bis-40E9) (CD3 on Jurkat cells) [ratio]	Ratio of Top MFI (relative to ATG-Bis-40E9) (CD3 on Jurkat cells) [ratio]	Ratio of IC50 (relative to ATG-Bis-40E9), MM.1S cytotoxicity (GPRC5D on MM.1S cells [5]) [ratio]	Ratio of Top cytotoxicity (relative to ATG-Bis-40E9), MM.1S cytotoxicity (GPRC5D on MM.1S cells [5]) [ratio]	Ratio of EC50 (relative to ATG-Bis-40E9), luciferase assay on MM.1S (GPRC5D on MM.1S cells [6]) [ratio]	Ratio of Top RLU (relative to ATG-Bis-40E9), luciferase assay on MM.1S (GPRC5D on MM.1S cells [6]) [ratio]
Bis-40E9-L2H3 (bispecific antibody, human IgG1, kappa, L234A L235A, Fab-scFv-Fab, LALA; also called humanized 2+1 bispecific antibody with scFv 40E9-L2H3) heavy 1: not shown heavy 2: EVQLVQSGAEVKKPGASVKVSCKASGYTFTSYVIHWVRQAPGQGLEWMGYFNPYNDGTKYNEEFKGRVTLTSDKSTSTAYMELRSLRSDDTAVYYCARGGVRRYFDVWGQGTTVTVSSASTKGPSVFPLAPSSKSTSGGTAALGCLVKDYFPEPVTVSWNSGALTSGVHTFPAVLQSSGLYSLSSVVTVPSSSLGTQTYICNVNHKPSNTKVDKKVEPKSCGGGGSGGGGSEVQLVQSGAEVKKPGSSVKVSCKASGYTFSSYVIHWVRQAPGQCLEWMGYINPYNDVIKYNEKFKGRVTLTSDKSTSTAYMELSSLRSEDTAVYYCARDSYYSYDGFAYWGQGTLVTVSSGGGGSGGGGSGGGGSGGGGSEIVLTQSPDFQSVTPKEKVTITCSASSSVSYMHWYQQKPDQSPKRLIYDTSKLASGVPSRFSGSGSGTDFTLTINSLEAEDAATYYCQQWSSNPPTFGCGTKVEIKGGGGSGGGGSDKTHTCPPCPAPEAAGGPSVFLFPPKPKDTLMISRTPEVTCVVVDVSHEDPEVKFNWYVDGVEVHNAKTKPREEQYNSTYRVVSVLTVLHQDWLNGKEYKCKVSNKALPAPIEKTISKAKGQPREPQVCTLPPSREEMTKNQVSLSCAVKGFYPSDIAVEWESNGQPENNYKTTPPVLDSDGSFFLVSKLTVDKSRWQQGNVFSCSVMHEALHNHYTQKSLSLSPGK light: DIQMTQSPSSLSASVGDRVTITCRASQDIGSNLNWLQQKPGKAIKRLIYATFGLDSGVPSRFSGSRSGTDFTLTISSLQPEDFATYYCQQYASFPYTFGGGTKVEIKRTVAAPSVFIFPPSDEQLKSGTASVVCLLNNFYPREAKVQWKVDNALQSGNSQESVTEQDSKDSTYSLSSTLTLSKADYEKHKVYACEVTHQGLSSPVTKSFNRGEC	0.00571	0.00166	0.06	66.8	71.9	11.5	0.0898	1940	221	341								
Bis-40E9-L2H14 (bispecific antibody, Fab-scFv-Fab format with LALA mutations; copies: 1 + 1 + 2) heavy 1: not shown heavy 2: EVQLVQSGAEVKKPGASVKVSCKASGYTFTSYVIHWVRQAPGQGLEWMGYFNPYNDGTKYNEEFKGRVTLTSDKSTSTAYMELRSLRSDDTAVYYCARGGVRRYFDVWGQGTTVTVSSASTKGPSVFPLAPSSKSTSGGTAALGCLVKDYFPEPVTVSWNSGALTSGVHTFPAVLQSSGLYSLSSVVTVPSSSLGTQTYICNVNHKPSNTKVDKKVEPKSCGGGGSGGGGSEVQLVQSGAEVKKPGSSVKVSCKASGYTFSSYVIHWVRQAPGQCLEWMGYINPYNDVIKYNEKFKGRVTLTSDKSTSTAYMELSSLRSEDTAVYYCARESYYSYDGFAYWGQGTLVTVSSGGGGSGGGGSGGGGSGGGGSEIVLTQSPDFQSVTPKEKVTITCSASSSVSYMHWYQQKPDQSPKRLIYDTSKLASGVPSRFSGSGSGTDFTLTINSLEAEDAATYYCQQWSSNPPTFGCGTKVEIKGGGGSGGGGSDKTHTCPPCPAPEAAGGPSVFLFPPKPKDTLMISRTPEVTCVVVDVSHEDPEVKFNWYVDGVEVHNAKTKPREEQYNSTYRVVSVLTVLHQDWLNGKEYKCKVSNKALPAPIEKTISKAKGQPREPQVCTLPPSREEMTKNQVSLSCAVKGFYPSDIAVEWESNGQPENNYKTTPPVLDSDGSFFLVSKLTVDKSRWQQGNVFSCSVMHEALHNHYTQKSLSLSPGK light: DIQMTQSPSSLSASVGDRVTITCRASQDIGSNLNWLQQKPGKAIKRLIYATFGLDSGVPSRFSGSRSGTDFTLTISSLQPEDFATYYCQQYASFPYTFGGGTKVEIKRTVAAPSVFIFPPSDEQLKSGTASVVCLLNNFYPREAKVQWKVDNALQSGNSQESVTEQDSKDSTYSLSSTLTLSKADYEKHKVYACEVTHQGLSSPVTKSFNRGEC											1.02	0.975	2.31	0.83	10.4	0.98	5.77	0.81
Bis-40E9-L2H16 (bispecific antibody, Fab-scFv-Fab format with LALA mutations; copies: 1 + 1 + 2) heavy 1: not shown heavy 2: EVQLVQSGAEVKKPGASVKVSCKASGYTFTSYVIHWVRQAPGQGLEWMGYFNPYNDGTKYNEEFKGRVTLTSDKSTSTAYMELRSLRSDDTAVYYCARGGVRRYFDVWGQGTTVTVSSASTKGPSVFPLAPSSKSTSGGTAALGCLVKDYFPEPVTVSWNSGALTSGVHTFPAVLQSSGLYSLSSVVTVPSSSLGTQTYICNVNHKPSNTKVDKKVEPKSCGGGGSGGGGSEVQLVQSGAEVKKPGSSVKVSCKASGYTFSDYVIHWVRQAPGQCLEWMGYINPYNDVIKYNEKFKGRVTLTSDKSTSTAYMELSSLRSEDTAVYYCARDSYYSYDGFAYWGQGTLVTVSSGGGGSGGGGSGGGGSGGGGSEIVLTQSPDFQSVTPKEKVTITCSASSSVSYMHWYQQKPDQSPKRLIYDTSKLASGVPSRFSGSGSGTDFTLTINSLEAEDAATYYCQQWSSNPPTFGCGTKVEIKGGGGSGGGGSDKTHTCPPCPAPEAAGGPSVFLFPPKPKDTLMISRTPEVTCVVVDVSHEDPEVKFNWYVDGVEVHNAKTKPREEQYNSTYRVVSVLTVLHQDWLNGKEYKCKVSNKALPAPIEKTISKAKGQPREPQVCTLPPSREEMTKNQVSLSCAVKGFYPSDIAVEWESNGQPENNYKTTPPVLDSDGSFFLVSKLTVDKSRWQQGNVFSCSVMHEALHNHYTQKSLSLSPGK light: DIQMTQSPSSLSASVGDRVTITCRASQDIGSNLNWLQQKPGKAIKRLIYATFGLDSGVPSRFSGSRSGTDFTLTISSLQPEDFATYYCQQYASFPYTFGGGTKVEIKRTVAAPSVFIFPPSDEQLKSGTASVVCLLNNFYPREAKVQWKVDNALQSGNSQESVTEQDSKDSTYSLSSTLTLSKADYEKHKVYACEVTHQGLSSPVTKSFNRGEC											0.913	0.972	2.97	0.62	4.93	0.98	6.02	0.84
